experiment: soluble on expression in E. coli; label from the status in PepcDB or PDB records

| Sequence | soluble on expression in E. coli |
| --- | --- |
| MSLSGCASPASASGASALSVWDLFQGGDGMLMDDMIEAVSKGAGGAEGFEIDRTILDWGPSYYTKLAMSAAGGRASDVAAMHLSRLAGYAPGGLVDAFDLDLLAEYGVTEKDFTPAVWARTRHEGTVYAIPLDVHPFIVFYDKKAAERAGLLDAAGELAPMGSPEALLEAGKALAEATGESGILFGHVTDTAQNWRLFAGLYAQTGAAFDLPDGGPPEIDVDAAVRVVTLMTRLFDGKTNPSNLDYNGALAAFSSGRGGMAMLGEWELPTLKKSGMELGAAPFPQVFEKPAVYTDSHSFVLPHQDSPDPARRREAHRYVAQILAQSLTWASAGHIPAYQPVLAEPEYAALDPQSSYADAAEVAVLDPPNWFAGAGSNFQNRMCQPLQSALLGDTTPEKAVRQMVREADTLLRQPNPVAEGHHHHHH | soluble |
| MSLSGMELSYRRSDLIFKRPAGTSRGVLTSKPTWFVRLDIDGHGGQGEVSLIPGLSLDPEEQIGRELDLLARRLRAEEPIRLRQFLAERGGADFSDYRSVLTDIAGILDSWQVSTDGRFPALRFALEMALLDLLSGGRQEWFASDFTRGEKRIPVNGLIWMGEAAFMQEQIEAKLAEGYGCLKLKIGAIDFDKECALLAGIRESFSPQQLEIRVDANGAFSPANAPQRLKRLSQFHLHSIEQPIRQHQWSEMAALCANSPLAIALDEELIGLGAEQRSAMLDAIRPQYIILKPSLLGGFHYAGQWIELARERGIGFWITSALESNLGLAAIAQWTALYQPTMPQGLGTGQLYTNNLPSNLAVDGGLLGVSEGHHHHHH | soluble |
| MSLSHLLELYINFKGEAKEAIAFYEDVFDTKCQNLMTFGEAPEDPEHPINDEIKDLVMNASIIIEGTYVMISDVPDMFGFEVTEGNNLSLVVSTDDDEKIDRLFKRLSEGGTVTMPFLKLFGPKSMVPEGGSHHHHHH | soluble |
| MSLSHVFEALSTETLPVRLGGNAAMKEKVGSDSSRWAIREVGDGNLNLVFIVTGEAGAVIVKQALPYVRLVGESWPLPLKRSFFEYHALKRQGARDPGMVPEILFFDEAQAIIVMEFLTPHIILRRALIDGRELPKIGRDLGLFVARTLFRGSDLSMVTREKKADVALFSDNVELCDITENLVFSDPYFEAKLNHHTTPQLDPIVAELRADRELKVEAQRLKHLFSAKAETLCHGDLHTGSVMVTDDETRVIDPEFAFYGPISFDVGMLIANFWMSYFSQAGHETAPGARDSMRAYLLDTIDTLWETFRAEFAALWRTERKGILYQASLFEDRQDPLAAEQALNIVIDEIWHEMLGFAGIETHRRILGLAHNADFETITDPDRRASCESKALKFGRHLAVNRQRIHSLRDIRETVERLEKEILAEGHHHHHH | soluble |
| MSLSIKLIAVDIDGTLVNSQKEITPEVFSAIQDAKEAGVKVVIATGRPIAGVAKLLDDLQLRDQGDYVVTFNGALVQETATGHEIISESLTYEDYLDMEFLSRKLGVHMHAITKDGIYTANRNIGKYTVHESTLVSMPIFYRTPEEMAGKEIVKCMFIDEPEILDAAIEKIPAEFYERYSINKSAPFYLELLTKNVDKGSAITHLAEKLGLTKDETMAIGDEENDRAMLEVVGNPVVMENGNPEIKKIAKYITKTNDESGVAHAIRTWVLEGHHHHHH | soluble |
| MSLSIPREFSNAIRFLSIDATLKAKSGHPGMPMGMADIATVLWTKFLKHNPNNPHWINRDRFVLSNGHGSMLLYSLLHLTGYDLSIEDIKNFRQLHSKTPGHPEYGYTPGVETTTGPLGQGVANAVGMALGEKLLSDRYNTPDLKVIDHHTYVFLGDGCLMEGVSHEACSLAGTLGLNKLVAFWDDNNISIDGDTKGWFSDNTPERFRAYGWHVIENVDGHDFVAIEKAINEAHSQQQKPTLICCKTVIGFGSPEKAGTASVHGSPLSDQERASAAKELNWDYQAFEIPQDVYKYWDAREKGQALEANWQGQRNLFKDSPKFDEFERVLSKELPVGLESAINDYIASQLSNPVKVATRKASQMVLEVLCKNMPEMFGGSADLTGSNNTNWSGSVWLNNTQEGANYLSYGVREFGMAAIMNGLSLYGGIKPYGGTFLVFSDYSRNAIRMSALMKQPVVHVMSHDSIGLGEDGPTHQPIEHVPSLRLIPNLSVWRPADTIETMIAWKEAVKSKDTPSVMVLTRQNLMPVVQTQHQVANIARGGYLVKDNPDAKLTIVATGSEVELAVKVANEFEKKGIKLNVASIPCVEVFATQAHEYKKTVIKDDIPAVFVEMAQPDMWYKYMPKAGGEVKGIYSFGESAPAEDLFKRFGFTVENISNIVAKYV | soluble |
| MSLSITHQPANLTLAQIQQMIGGVMLLSQHSPLHRRYVVAEWLQRILPAFELNQFCYYEDEHGRPIAFCNWAFVSEQIRDELLSGVREISPSDWRSGQQIYIPEMIAPFGHGREVVNDLRRRVFLPWQGQKVCTVRGKVDAQNDRCIRKVQWFSIEGHHHHHH | soluble |
| MSLSKNKLKTPHCMLNLTFNWLSFCEMRGTRDTVEDMFVCKANPVDNQACMAIFDGHGGSKTSYYACGVFIKLYTSAKMIFSKQWLRGTMRGISESVKTKLFPDGSTAAVAMFKDRKLITSTIGDSRIIVMTEDGKLKYENRVHKPTQREEFERVHEAGGSVYGFRLQNSLALSRTMGDIAVPGISAESEEDEVNLDEEDRWVIVGCDGVFDELPMSFVGELCKKAKSAIGLSHSLRTAAFAARSQDNITVVALDVKTLYSKVELASDMNSTMREGHHHHHH | not soluble |
| MSLSKQETEKVRVFALGGVGEIGKNMYGIEVDEDIIVIDAGLMFPDDDMLGVDIVIPDVSYLVENEERVRGIILTHGHEDHIGGLSYVLKKINVPVYATKLTLGLVEEKLKEAGIHRHAELRLIDSNSRIKLGNTPVSFFRVSHSIPDCVGVCVETSQGAIVHTGDFKFDQTPVDGKHADIGKMAAIGQKGVLCLMSDSTNAERPGTTKSEAEAGKGIKDVFARTKGRLIVTSFASNVHRIQQVIQAASATNRKLAVVGKSMVRVISIAGKLGYLKIPKDLLIDMDEVNKHKPEKVAILTTGSQGEPMSALTRMAKGAHRHITITPNDTVIIAATAIPGNETSVSAVIDQLYRIGAEVIYGSQAVHASGHGSQEELKLMLNLMRPKFFLPIHGEIRMQHAHQQLALQVGIKKERIYIVEKGEVIEFTKQQARRGPKVPSGHVLIDGLGVGDVGNIVLRDRRLLSKDGILVVVVTLNKKTNTIVSGPNIISRGFVYVRESEELLEKSNELVTSILQKCVTENVNEWSSLKSNIREGLSRYLFEKTKRRPMILPIIMEEGHHHHHH | soluble |
| MSLSKRNKPQESKEFGFQALKINGTYVSTDIMKEERNKFFEKYKRNADVLRMNDHERNDMLLDQVIERLLLEDYVNNKSGVTATDSEVEDYINRFIKPRYGDSLGTFMSSQGYTNEEEMKAGIKEYILKHKALYKAAKEKNVTLTEQELDEGYEKHKIQNKKVDIRHIFISSQERGKEEAKKLADEIYNRLKNNEDFETLAKQYSDDEKTKESGGVITELRAGFNEAVFDNAVFTAEAGQLLEPIEVARGYEIVYVDKVTEGHHHHHH | soluble |
| MSLSKTSKMKKTEISKKPSELGISNKTQDDLSKYSDTVNIALFGVDRRLKTDVSRSDSIMILTMDPAHKKLKLSSIMRDTYVNVDGHGMTKITHAYAYGGPQLAIKTINENFKLNIKDYVTVDFYALEKIIDKLNGVEINVQSDEVGYLNGYIDEVSKYEKVTPNHVTSSGKQLLDGRQAVAYSRIRYTAGGDFVRTERQRTVLMAVFNKLQAQGKSNMVSMFDEILPYTETNMGSIDIAKYGTKFISSDISNIDQERFPLDGYCSGVTVDNVWYLKTDLNVTSDQMRKYIFEDVKPSPKASLVNIPEKEGHHHHHH | soluble |
| MSLSKVRYGVVSTAKVAPRFIEGVRLAGNGEVVAVSSRTLESAQAFANKYHLPKAYDKLEDMLADESIDVIYVATINQDHYKVAKAALLAGKHVLVEKPFTLTYDQANELFALAESCNLFLMEAQKSVFIPMTQVIKKLLASGEIGEVISISSTTAYPNIDHVTWFRELELGGGTVHFMAPYALSYLQYLFDATITHASGTATFPKGQSDSQSKLLLQLSNGVLVDIFLTTRLNLPHEMIIYGTEGRLIIPHFWKTTHAKLVRNDTSARTIQVDMVSDFEKEAYHVSQMILEGQRVSHIMTPQLTLSGVKIIEDLYRSWGKEGHHHHHH | soluble |
| MSLSLNFLDFEKPIVELETKIQALRDVSRHSTSASVDLDKELEQLEKKSLELKKKIFSDLGAWQVAQLARHPQRPYTLDYLKHIFTEFDELAGDRAYADDKAIVGGIARLEGRSVMVIGHQKGRETREKVKRNFGMPKPEGYRKALRLMEMAERFNMPIITFIDTAGAYPGVGAEERGQSEAIAKNLKVMSGLKVPVICNVVGEGGSGGALAIGVGDYVNMLQYSTYSVISPEGCASILWRDSDKAPQAAEAMGLIAPRLKELELIDEIIEEPLGGAHRDHKQTAENVKATLLRQLADLDALDHENLLERRYQRLMNYGYCEGHHHHHH | soluble |
| MSLSLPPPRRVVLTTPTHFDVEYVINPHMSENVGAVNTDVAWQQWKALRAAYTALDHTPVLVNGQSGLPDMVFCANQTLPFYDPASDSKGVVLSRMHSEQRADEVPYYARFFEEEGYAVDTLPEDLDADFEGMGDALWHPGHHLLWGGYGYRTSPEAYEALGDLLDVPIVALRLVDPDYYHLDTCLCPLDARHALVAPEAFDDAGRALIDALFETVIEVPDHEARHQFACNAHCPDGAHVLIQEGCEGTNAQLRNHDFVPVELDTSEFMKSGGSVFCMKQMIWEGHHHHHH | not soluble |
| MSLSLREEALHLHKVNQGKLESKSKVEVRNAKDLSLAYSPGVAEPCKDIHEDINKVYDYTMKGNMVAVVTDGTAVLGLGNIGPEAALPVMEGKAVLFKSFAGVDAFPIALNTNDVDKIVETVKLLEPTFGGVNLEDIAAPNCFIIEERLKKETNIPVFHDDQHGTAIVTVAGLVNALKLSGKSMSSIKVVANGAGAAGIAIIKLLHHYGVRDIVMCDSKGAIYEGRPNGMNDVKNEVAKFTNQDRKDGSLKDVIVDADVFIGVSVAGALTKEMVQSMAKDPIIFAMANPNPEIMPEDAREAGASVVGTGRSDFPNQVNNVLAFPGIFRGALDVRATHINEEMKIAAVEAIASLVSEDELSADYVIPAPFDKRVAPAVAKAVAKAAMETGVARITVDPEEVAEKTRKLTIIGEEGHHHHHH | soluble |
| MSLSMSLRDQLLKAGLVNEKQAKQATKQKQKQQRLEHKNQVDKDDSQRQAAEQAKAEKLARDQELNRQQQEKAEKKAKAAQIKQLIEGTRLPKLESDDYYNFVDAKKVKRIAVNDLIRDKLSRGSLAIVSYDGRYEIVPRDAAVKIQERDPRRVVLLNVQSQEPDEDDPYKDYVVPDDLMWEGGSHHHHHH | soluble |
| MSLSNRAGEILIVEDSPTQAEHLKHILEETGYQTEHVRNGREAVRFLSLTRPDLIISDVLMPEMDGYALCRWLKGQPDLRTIPVILLTILSDPRDVVRSLECGADDFITKPCKDVVLASHVKRLLSGVKRTEERYSRESITLAFGNEGHHHHHH | soluble |
| MSLSNTELILIRVTGEDRPGLTASVTEILAKYDATILDIGQADIHNTLSLGILFRSEERHSGFIMKELLFKASSLGVTIRFEPIGTDQYENWVGMQGKNRYILTVLGRKLSARQISAATRVLAEQDLNIDAIKRLTGRIPLDEDKTDTRTRACIEFSVRGTPKDRIAMQERLMQLASEQEMDFSFQQDNMYRRMRRLICFDMDSTLIETEVIDELAIRAGVGDEVKAITESAMRGEIDFTESFTRRVALLKGLDESVMQEIAESLPITEGVDRLMYVLKKYGYKIAILSGGFTYFGQYLQKKYGIDYVYANELEIVDGKLTGRYLGDVVDGKRKAELLRLIAQVEKVDIAQTIAVGDGANDLPMLGIAGLGIAFHAKPKVVANAKQSINTIGLDGVLYFLGFKDSYLNEGHHHHHH | soluble |
| MSLSPDSAHQQVSLRGGSGSEFMIVDITDGRLLGTIDSAKAMSQTHPGAVYLHQGESFVIDELDLEENLALARPELPDYTTYARSDTDIRITSAPLEDEVFDAGGGLWVANVEVQVTDRVTGYVTRLSDGTTLDATPLYLPPQILQTRAVAYTIDPLALEAMGIPAADIPGALHAAEHAAIGMLPLLATCDRWDIGGVSTALHADTGYPTVFVYDGMDGGAGFADTGFRRFAQWIEATFEVVRSCSCESGCPSCVQSPKCGNGNNPLDKAGAIKLLGAMVTLLGTSEGHHHHHH | not soluble |
